Test results from the supplement of paper PMC10567573.
± gives the standard deviation.

Experiment: protein stability index of a GFP-peptide fusion (GPS, HEK-293T) (PSI 1-6); higher = more stable
[1] = treatment: DMSO, c terminus: a fixed tail appended
[2] = treatment: MLN4924 1 uM, 8 h, c terminus: a fixed tail appended
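Further: 24-mer peptide tiles fused after GFP, lentivirally expressed, FACS-sorted into six equal bins by GFP/DsRed ratio, decoded by Illumina sequencing, PSI is the read-weighted mean bin number.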

Row | Sequence | protein stability index [1] | protein stability index [2] | protein stability index (treatment: DMSO, c terminus: native) | protein stability index (treatment: MLN4924 1 uM, 8 h, c terminus: native)
1 | MEMAKFRYILPVYGICREPVGLVM [RIPK4] | 2.69 ± 0.39 | 3.08 ± 0.86 |  | 
2 | SEQCYYIFGDLCGNMANLSLHDHD [DVL3] | 2.96 ± 0.19 | 2.91 ± 0.27 |  | 
3 | LDLSSSSQMSPLSLYGENSNSLSS [ATF6] | 4.01 ± 0.19 | 3.92 ± 0.26 |  | 
4 | SDDFCTFQMVLEGGVCCTVTLNFN [GFOD1] | 2.79 ± 0.48 | 3.02 ± 0.29 |  | 
5 | NWLQVSFTAKHANKVKVLDAPVPD [FSD1] | 3.02 ± 0.15 | 2.91 ± 0.19 |  | 
6 | RGSIQSRYISMSVWTSPRRLVELA [PRAME] | 2.52 ± 0.24 | 2.71 ± 0.3 |  | 
7 | RARVKEKFSPEAFTEQLYRYVTKL [ALG2] | 2.36 ± 0.48 | 2.05 ± 0.46 |  | 
8 | ETSYQQREERLRRENEELSARYLS [FBF1] | 4.79 ± 0.2 | 4.89 ± 0.17 |  | 
9 | KELEDMNQKLFDLRGKFKRPPLRR [TNNI2] | 3.86 ± 0.19 | 4.1 ± 0.42 |  | 
10 | LEEQFALEAGGYQAGAARLEEELR [PRPH] | 5.35 ± 0.49 | 5.62 ± 0.16 |  | 
11 | QNLQEEKERKLECLPPEPSPDDPE [FAF2] | 5.44 ± 0.37 | 5.46 ± 0.46 |  | 
12 | LKMKEREEAWVKIENLAKANPQYT [PPP2R5C] | 3.4 ± 0.22 | 3.56 ± 0.19 |  | 
13 | RPHEVLLCSDLVKAYQRCVSAAHK [CHCHD6] | 2.64 ± 0.11 | 2.75 ± 0.61 |  | 
14 | SGGGGSSSNFHINVEESVDGQVVS [KRT15] | 5.26 ± 0.1 | 5.21 ± 0.26 |  | 
15 | AALHGLEETKKLANKYLVEDVLLL [KLHL14] | 2.42 ± 0.22 | 2.55 ± 0.56 |  | 
16 | SELQKELKKVKTAHSNDGDCKTQ [DPCD] |  |  | 4.94 ± 0.27 | 5.28 ± 0.14
17 | FLFPIDISLVKREHDFLDRDAIEA [DLC1] | 2.66 ± 0.57 | 2.72 ± 0.31 |  | 
18 | DCRVDLGSEVYRMLREPAEPVAAE [PDLIM4] | 4.67 ± 0.05 | 4.76 ± 0.092 |  | 
19 | IRCRHPPPGSHLLYAKMIQKLADL [VDR] | 2.37 ± 0.33 | 2.23 ± 0.13 |  | 
20 | GGLEHVPSSSSIHNGDMEKILLDA [BNIP3L] | 4.85 ± 0.23 | 4.68 ± 0.61 |  | 
21 | PQTHSNRIYRMIKLGLGIDEDEVA [HSP90AB1] | 3.25 ± 0.4 | 3.49 ± 0.31 |  | 
22 | PRLTMHYPCLEKPRIWSLAHTATA [IRX6] | 2.31 ± 0.18 | 2.5 ± 0.11 |  | 
23 | TEELTVIKSSLKDEYQYSFWDLFR [SLC2A12] | 2.38 ± 0.25 | 2.29 ± 0.35 |  | 
24 | YFITLGTEIAEQEGNQKGEQATSL [KCNA1] | 3.79 ± 0.1 | 3.84 ± 0.24 |  | 
25 | MTPQLFINYKLKSVAHLPWRMLTY [CLPTM1] | 2.57 ± 0.71 | 2.45 ± 0.56 |  | 
